B1: ERaptD4 (ssDNA)
DNA: ATACCAGCTTATTCAATTCGTTGCATTTAGGTGCATTACGGGGGTTATCCGCTCTCTCAGATAGTATGTGCAATCA
B2: ERaptD3 (ssDNA)
DNA: ATACCAGCTTATTCAATTGGGGATAACGTCGTCACGTCGTGTCATCATTGGTTCAGTCAGATAGTATGTGCAATCA
B3: ERaptD8 (ssDNA)
DNA: ATACCAGCTTATTCAATTCGAGTAACGCTGTCTCTTCCGAATCGGGGGAAGGCGGAGGAGATAGTATGTGCAATCA

Experiments:
ERα full length = ERα full length (UniProt P03372 1-595); assay: aptamer ELISA; 500 nM aptamer; ITC: 10 mM Tris-HCl pH 8.0, 25 C; aptamer binding buffer (SELEX): 20 mM Tris-HCl pH 7.6, 120 mM NaCl, 5 mM KCl, 1 mM MgCl2, 1 mM CaCl2, RT (ca. 27 C); ELISA: 2; details: protein: commercial, chain copies: 2
ERα full length, sequence (P03372 whole entry): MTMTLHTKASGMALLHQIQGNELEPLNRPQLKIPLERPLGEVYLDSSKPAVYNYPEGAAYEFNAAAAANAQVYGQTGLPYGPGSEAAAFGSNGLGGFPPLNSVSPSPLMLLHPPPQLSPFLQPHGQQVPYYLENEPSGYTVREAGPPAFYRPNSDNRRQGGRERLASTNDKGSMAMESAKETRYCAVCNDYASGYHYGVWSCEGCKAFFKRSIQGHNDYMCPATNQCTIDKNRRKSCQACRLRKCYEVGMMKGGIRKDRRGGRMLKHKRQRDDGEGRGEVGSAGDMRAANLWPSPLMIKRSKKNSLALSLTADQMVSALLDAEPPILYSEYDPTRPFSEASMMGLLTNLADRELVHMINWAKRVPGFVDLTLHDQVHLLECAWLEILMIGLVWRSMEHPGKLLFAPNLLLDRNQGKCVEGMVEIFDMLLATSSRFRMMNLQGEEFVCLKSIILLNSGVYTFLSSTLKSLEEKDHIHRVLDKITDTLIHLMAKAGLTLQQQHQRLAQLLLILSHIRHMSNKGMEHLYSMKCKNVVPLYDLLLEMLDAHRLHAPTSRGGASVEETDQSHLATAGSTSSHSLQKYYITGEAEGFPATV

PR-DBD = PR-DBD (human (cDNA from MCF-7), UniProt P06401 567-639); assay: aptamer ELISA; negligible binding; ITC: 10 mM Tris-HCl pH 8.0, 25 C; aptamer binding buffer (SELEX): 20 mM Tris-HCl pH 7.6, 120 mM NaCl, 5 mM KCl, 1 mM MgCl2, 1 mM CaCl2, RT (ca. 27 C); ELISA: 2; details: protein: recombinant; tags: His (pET100/D-TOPO)
PR-DBD, sequence (P06401 567-639): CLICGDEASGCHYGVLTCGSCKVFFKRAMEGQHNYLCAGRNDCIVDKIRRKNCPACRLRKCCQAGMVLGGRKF

PR-LBD = PR-LBD (UniProt P06401 675-933); assay: as above; details: protein: commercial; tags: GST
PR-LBD, sequence (P06401 675-933): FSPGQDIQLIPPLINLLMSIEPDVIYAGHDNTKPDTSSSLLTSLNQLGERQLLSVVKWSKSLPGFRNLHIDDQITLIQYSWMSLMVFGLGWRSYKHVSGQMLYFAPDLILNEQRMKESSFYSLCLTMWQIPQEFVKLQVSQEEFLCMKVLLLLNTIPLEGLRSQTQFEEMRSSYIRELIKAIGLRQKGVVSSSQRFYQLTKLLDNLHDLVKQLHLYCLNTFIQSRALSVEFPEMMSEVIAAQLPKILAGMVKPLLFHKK

| Binder | binding signal (ERα full length) | binding result (PR-DBD) | binding result (PR-LBD) | binding signal (ERα full length; label: biotin) |
| --- | --- | --- | --- | --- |
| B1 | 78.5 % of anti-ERα antibody signal | no binding | no binding |  |
| B2 |  |  |  | 47.3 % of anti-ERα antibody signal |
| B3 |  |  |  | 50.5 % of anti-ERα antibody signal |

Reference: PMC4820125, “Aptamer-Assisted Detection of the Altered Expression of Estrogen Receptor Alpha in Human Breast Cancer”
